The chains are these.
B1: Antibody 2-12 (antibody, human IgG1, kappa)
light: ACPFPALELCGSPGSPKPILFFRLSGGEIVLTQSPDFQSVTPKEKVTITCSANSALSYMYWYQQKPDQSPKLWVHGTSNLASGVPSRFSGSGSGTDFTLTINSLEAEDAATYYCHHWSNTQWTFGGGTKVEIKRTVAAPSVFIFPPSDEQLKSGTASVVCLLNNFYPREAKVQWKVDNALQSGNSQESVTEQDSKDSTYSLSSTLTLSKADYEKHKVYACEVTHQGLSSPVTKSFNRGEC
heavy: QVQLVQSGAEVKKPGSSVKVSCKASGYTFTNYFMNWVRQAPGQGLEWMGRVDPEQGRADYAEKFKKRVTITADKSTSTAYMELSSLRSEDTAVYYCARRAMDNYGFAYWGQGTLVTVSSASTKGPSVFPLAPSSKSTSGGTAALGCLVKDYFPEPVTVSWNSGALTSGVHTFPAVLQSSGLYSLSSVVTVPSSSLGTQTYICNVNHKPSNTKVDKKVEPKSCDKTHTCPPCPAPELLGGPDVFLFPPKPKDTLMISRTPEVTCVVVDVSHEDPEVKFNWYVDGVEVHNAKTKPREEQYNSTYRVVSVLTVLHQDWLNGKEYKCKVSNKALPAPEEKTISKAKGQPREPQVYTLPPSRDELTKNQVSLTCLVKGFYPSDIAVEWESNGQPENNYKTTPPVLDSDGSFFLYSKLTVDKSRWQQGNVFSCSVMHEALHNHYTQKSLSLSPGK
B2: Antibody 2-13 (antibody, human IgG1, kappa)
light: ACPFPALELCGGSSPPRAAAVKSPSGGEIVLTQSPDFQSVTPKEKVTITCSANSALSYMYWYQQKPDQSPKLWVHGTSNLASGVPSRFSGSGSGTDFTLTINSLEAEDAATYYCHHWSNTQWTFGGGTKVEIKRTVAAPSVFIFPPSDEQLKSGTASVVCLLNNFYPREAKVQWKVDNALQSGNSQESVTEQDSKDSTYSLSSTLTLSKADYEKHKVYACEVTHQGLSSPVTKSFNRGEC
heavy: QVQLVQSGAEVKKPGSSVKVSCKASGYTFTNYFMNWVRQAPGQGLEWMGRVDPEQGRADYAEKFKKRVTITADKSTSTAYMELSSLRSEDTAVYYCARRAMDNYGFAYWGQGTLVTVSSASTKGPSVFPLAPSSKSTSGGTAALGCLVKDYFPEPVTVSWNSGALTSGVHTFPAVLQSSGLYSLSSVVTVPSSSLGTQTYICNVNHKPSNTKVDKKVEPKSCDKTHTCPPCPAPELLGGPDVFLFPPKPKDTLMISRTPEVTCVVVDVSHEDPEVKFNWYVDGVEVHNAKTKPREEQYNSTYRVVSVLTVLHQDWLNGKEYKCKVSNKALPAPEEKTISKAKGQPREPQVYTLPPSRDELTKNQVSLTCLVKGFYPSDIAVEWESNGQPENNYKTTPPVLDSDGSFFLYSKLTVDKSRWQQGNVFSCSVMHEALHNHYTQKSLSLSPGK
B3: Antibody 2-9 (antibody, human IgG1, kappa)
light: ACPFPALELCGGSSPPHEQLTVSGGEIVLTQSPDFQSVTPKEKVTITCSANSALSYMYWYQQKPDQSPKLWVHGTSNLASGVPSRFSGSGSGTDFTLTINSLEAEDAATYYCHHWSNTQWTFGGGTKVEIKRTVAAPSVFIFPPSDEQLKSGTASVVCLLNNFYPREAKVQWKVDNALQSGNSQESVTEQDSKDSTYSLSSTLTLSKADYEKHKVYACEVTHQGLSSPVTKSFNRGEC
heavy: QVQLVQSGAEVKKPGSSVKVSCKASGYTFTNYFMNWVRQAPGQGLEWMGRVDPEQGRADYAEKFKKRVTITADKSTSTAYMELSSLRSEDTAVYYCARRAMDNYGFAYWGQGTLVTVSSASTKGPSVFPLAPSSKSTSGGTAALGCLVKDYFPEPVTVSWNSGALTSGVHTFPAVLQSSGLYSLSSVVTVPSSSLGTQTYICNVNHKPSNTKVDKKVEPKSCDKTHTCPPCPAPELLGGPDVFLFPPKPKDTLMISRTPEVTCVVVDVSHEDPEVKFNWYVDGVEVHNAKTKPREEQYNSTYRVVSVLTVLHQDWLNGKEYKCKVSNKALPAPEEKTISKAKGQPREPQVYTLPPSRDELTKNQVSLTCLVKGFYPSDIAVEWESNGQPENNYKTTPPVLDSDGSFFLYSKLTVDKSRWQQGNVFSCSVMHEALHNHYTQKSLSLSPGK
B4: Antibody 2-8 (antibody, human IgG1, kappa)
light: ACPFPALELCGGPGSSPMPYDLYHPSGGEIVLTQSPDFQSVTPKEKVTITCSANSALSYMYWYQQKPDQSPKLWVHGTSNLASGVPSRFSGSGSGTDFTLTINSLEAEDAATYYCHHWSNTQWTFGGGTKVEIKRTVAAPSVFIFPPSDEQLKSGTASVVCLLNNFYPREAKVQWKVDNALQSGNSQESVTEQDSKDSTYSLSSTLTLSKADYEKHKVYACEVTHQGLSSPVTKSFNRGEC
heavy: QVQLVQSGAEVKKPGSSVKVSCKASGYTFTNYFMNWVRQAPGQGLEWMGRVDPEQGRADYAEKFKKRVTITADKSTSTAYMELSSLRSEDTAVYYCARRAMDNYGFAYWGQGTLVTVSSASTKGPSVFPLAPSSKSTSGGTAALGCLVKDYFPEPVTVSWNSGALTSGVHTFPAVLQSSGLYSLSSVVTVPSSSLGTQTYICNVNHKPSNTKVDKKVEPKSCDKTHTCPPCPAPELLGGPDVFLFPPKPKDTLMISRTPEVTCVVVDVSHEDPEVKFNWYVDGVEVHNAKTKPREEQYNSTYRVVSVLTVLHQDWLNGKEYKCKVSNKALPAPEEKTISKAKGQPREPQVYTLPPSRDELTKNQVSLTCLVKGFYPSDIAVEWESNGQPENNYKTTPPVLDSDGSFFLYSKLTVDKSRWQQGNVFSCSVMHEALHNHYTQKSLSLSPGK
B5: Antibody 2-11 (antibody, human IgG1, kappa)
light: ACPFPALELCSSPSPSGGGGIGQLTASGGEIVLTQSPDFQSVTPKEKVTITCSANSALSYMYWYQQKPDQSPKLWVHGTSNLASGVPSRFSGSGSGTDFTLTINSLEAEDAATYYCHHWSNTQWTFGGGTKVEIKRTVAAPSVFIFPPSDEQLKSGTASVVCLLNNFYPREAKVQWKVDNALQSGNSQESVTEQDSKDSTYSLSSTLTLSKADYEKHKVYACEVTHQGLSSPVTKSFNRGEC
heavy: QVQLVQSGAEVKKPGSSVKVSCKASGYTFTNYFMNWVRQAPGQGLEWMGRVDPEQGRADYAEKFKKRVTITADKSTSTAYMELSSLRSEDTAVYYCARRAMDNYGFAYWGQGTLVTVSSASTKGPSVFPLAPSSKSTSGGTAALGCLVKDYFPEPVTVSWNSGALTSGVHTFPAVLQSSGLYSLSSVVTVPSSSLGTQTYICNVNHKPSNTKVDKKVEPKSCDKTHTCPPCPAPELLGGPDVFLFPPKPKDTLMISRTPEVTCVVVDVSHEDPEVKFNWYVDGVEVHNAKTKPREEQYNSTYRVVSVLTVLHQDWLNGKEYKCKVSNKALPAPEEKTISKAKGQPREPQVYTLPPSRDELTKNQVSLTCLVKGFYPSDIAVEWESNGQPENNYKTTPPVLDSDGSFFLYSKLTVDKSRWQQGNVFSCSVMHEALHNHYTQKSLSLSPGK
B6: Antibody 1-2 (antibody, human IgG1, kappa)
light: DIVMTQTPLSLSVTPGQPASISCRSSQSLLNSDGNTYLYWYLQKPGQSPQLLIYLVSKLGSGVPNRFSGSGSGTDFTLKISRVEAEDVGVYYCVQGTHDPWTFGGGTKVEIKRTVAAPSVFIFPPSDEQLKSGTASVVCLLNNFYPREAKVQWKVDNALQSGNSQESVTEQDSKDSTYSLSSTLTLSKADYEKHKVYACEVTHQGLSSPVTKSFNRGEC
heavy: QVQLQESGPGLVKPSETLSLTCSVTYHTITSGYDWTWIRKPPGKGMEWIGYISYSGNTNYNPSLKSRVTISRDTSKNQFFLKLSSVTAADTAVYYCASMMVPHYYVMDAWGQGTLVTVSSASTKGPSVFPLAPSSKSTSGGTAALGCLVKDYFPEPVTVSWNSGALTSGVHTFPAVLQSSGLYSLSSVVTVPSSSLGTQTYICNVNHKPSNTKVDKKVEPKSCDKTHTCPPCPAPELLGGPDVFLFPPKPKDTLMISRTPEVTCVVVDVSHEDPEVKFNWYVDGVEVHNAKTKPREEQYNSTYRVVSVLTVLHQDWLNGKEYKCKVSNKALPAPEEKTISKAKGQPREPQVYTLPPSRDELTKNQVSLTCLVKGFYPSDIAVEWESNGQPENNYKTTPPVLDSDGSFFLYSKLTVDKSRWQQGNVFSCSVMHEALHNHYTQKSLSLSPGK
notes: also called version of Antibody 1 having a S239D mutation and an I332E mutation in the Fc region
B7: Antibody 2-1 (antibody, V domains shown)
VL: EIVLTQSPDFQSVTPKEKVTITCSANSALSYMYWYQQKPDQSPKLWVHGTSNLASGVPSRFSGSGSGTDFTLTINSLEAEDAATYYCHHWSNTQWTFGGGTKVEIKR
VH: QVQLVQSGAEVKKPGSSVKVSCKASGYTFTNYFMNWVRQAPGQGLEWMGRVDPEQGRADYAEKFKKRVTITADKSTSTAYMELSSLRSEDTAVYYCARRAMDNYGFAYWGQGTLVTVSSA
notes: Wild-type Fc region; Variable domains are stated for Antibody 2-6, another version of Antibody 2 that differs in the Fc region only; also called version of Antibody 2 having a wild-type Fc region
B8: Antibody 2-2 (antibody, V domains shown)
VL: B7 VL
VH: B7 VH
notes: Fc region with S239D and I332E; also called version of Antibody 2 having a S239D mutation and an I332E mutation in the Fc region; unmasked Antibody 2-2
B9: Antibody 1-1 (antibody, V domains shown)
VL: DIVMTQTPLSLSVTPGQPASISCRSSQSLLNSDGNTYLYWYLQKPGQSPQLLIYLVSKLGSGVPNRFSGSGSGTDFTLKISRVEAEDVGVYYCVQGTHDPWTFGGGTKVEIKR
VH: QVQLQESGPGLVKPSETLSLTCSVTYHTITSGYDWTWIRKPPGKGMEWIGYISYSGNTNYNPSLKSRVTISRDTSKNQFFLKLSSVTAADTAVYYCASMMVPHYYVMDAWGQGTLVTVSSA
notes: Humanized; wild type Fc region; Variable domains are stated for Antibody 1; full chains are not tied to the label Antibody 1-1; also called version of Antibody 1 having a wild type Fc region

T1 sequence (P16410 36-162 limits assumed): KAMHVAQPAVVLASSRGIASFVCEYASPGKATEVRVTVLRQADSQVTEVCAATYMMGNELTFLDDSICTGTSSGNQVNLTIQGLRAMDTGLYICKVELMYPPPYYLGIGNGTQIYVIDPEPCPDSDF

One experiment addresses T1, human CTLA4-Fc (R&D Systems, #7268-CT) (human, UniProt P16410 36-162).
T1 construct: Bought; not shown: Fc part
In words: low density antigen binding ELISA, human CTLA4-Fc coated; no protease.
B1 gave a concentration giving a half-maximal response (EC50) of 3.3 nM. The same measure, in the same setting: for B2 the value was 14.2 nM. As for B3, the concentration giving a half-maximal response (EC50) stood at 48.9 nM.

Consider B4, for which the EC50 came out at 54.8 nM. In turn, B5 registered an EC50 of 34.9 nM.

Another experiment concerns the target T1, human CTLA4-Fc (R&D Systems, #7268-CT). Description: low density antigen binding ELISA, human CTLA4-Fc coated at 1 µg/mL, anti-human kappa-HRP.
Molecule B6 gave an EC50 of 0.32 nM.

As to B7, the EC50 was found to be 0.44 nM.

As to B8, a half-maximal effect (EC50) was put at 0.39 nM.

In turn, B9 yielded an EC50 of 0.32 nM.

The values above are taken from patent US20220073613A1 (XILIO DEVELOPMENT, published 2022).
